In data set [1] the test system is CCCCc1nc(Cl)c(CO)n1Cc1ccc(-c2ccccc2-c2nn[nH]n2)cc1. The experiment in a line: TP_TRANSPORTER: transepithelial transport (basal to apical) in MDR1-expressing MDCK cells. Type of data set: functional, cell-based.
For data set [2] the test system is unchanged. As to the kind of experiment: TP_TRANSPORTER: transepithelial transport (basal to apical) in Caco-2 cells. It counts as functional, cell-based.

Turning to “ATP-dependent translocase ABCB1 (Homo sapiens)”, the Km in data set [1] was 403 µM; in data set [2] it was 232 µM.

The record behind these values is ChEMBL document CHEMBL2074286, “Active transport of the angiotensin-II antagonist losartan and its main metabolite EXP 3174 across MDCK-MDR1 and caco-2 cell monolayers” (Br J Pharmacol, 2000).
